Assay results taken from US20220403041A1 (Sanofi, published 2022).

Assays:
soluble CD73 dimer [1] = target: T1, soluble CD73 dimer (human, UniProt P21589 27-549, limits assumed); experiment: SPR, antibody on the solid support, soluble CD73 dimer in solution
T1 construct: CD73 in the flow (SPR) or in solution (BLI binning); also called soluble human CD73
T1 sequence: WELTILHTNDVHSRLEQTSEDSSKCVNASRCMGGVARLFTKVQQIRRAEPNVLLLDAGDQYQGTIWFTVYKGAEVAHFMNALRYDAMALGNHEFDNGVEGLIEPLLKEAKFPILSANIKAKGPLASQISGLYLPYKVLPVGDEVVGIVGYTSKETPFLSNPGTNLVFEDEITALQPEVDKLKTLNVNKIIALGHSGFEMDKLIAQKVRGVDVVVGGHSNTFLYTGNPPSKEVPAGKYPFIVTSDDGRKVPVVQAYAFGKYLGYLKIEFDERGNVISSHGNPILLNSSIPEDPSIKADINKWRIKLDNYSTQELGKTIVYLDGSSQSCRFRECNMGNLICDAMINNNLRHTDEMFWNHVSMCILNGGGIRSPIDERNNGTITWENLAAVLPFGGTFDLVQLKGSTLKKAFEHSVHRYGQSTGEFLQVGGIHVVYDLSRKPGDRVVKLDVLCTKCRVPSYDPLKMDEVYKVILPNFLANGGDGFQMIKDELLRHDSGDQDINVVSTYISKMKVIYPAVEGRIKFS

soluble CD73 dimer [2] = target: T1, soluble CD73 dimer; experiment: SPR; KD from Langmuir ka and kd of the principal dissociation component
soluble CD73 dimer [3] = target: T1, soluble CD73 dimer; experiment: SPR, antibody captured on Protein A chip, CD73 in flow; biphasic fit, component of abundance 30%
soluble CD73 dimer [4] = target: T1, soluble CD73 dimer; experiment: SPR, antibody captured on chip, CD73 in flow; biphasic fit, share after 300 s binding phase of the component with ka 1.50E+06 1/Ms
soluble CD73 dimer [5] = target: T1, soluble CD73 dimer; experiment: SPR, antibody captured on chip, CD73 in flow; biphasic fit, share by T0 intercept of the component with kd 7.06E-03 1/s
soluble CD73 dimer [6] = target: T1, soluble CD73 dimer; experiment: SPR, antibody captured on chip, CD73 in flow; biphasic fit, share by T0 intercept of the component with kd 7.86E-05 1/s
soluble CD73 dimer [7] = target: T1, soluble CD73 dimer; experiment: SPR, antibody captured on Protein A chip, CD73 in flow; Langmuir 1:1 fit
soluble CD73 dimer [8] = target: T1, soluble CD73 dimer; experiment: SPR, antibody captured on Protein A chip, CD73 in flow; biphasic fit, component of abundance 70%
soluble CD73 dimer [9] = target: T1, soluble CD73 dimer; experiment: SPR, antibody captured on Protein A chip, CD73 in flow; biphasic fit, component of abundance 14%
soluble CD73 dimer [10] = target: T1, soluble CD73 dimer; experiment: SPR dissociation kinetics
[11] = target: T2, human CD73 on COR-L23 lung carcinoma cells (human) (UniProt P21589); experiment: cell-based or functional assay
T2 sequence: T1 sequence

soluble CD73 dimer [12] = target: T1, soluble CD73 dimer; experiment: SPR, antibody captured on Protein A chip, CD73 in flow; biphasic fit, component of abundance 86%
soluble CD73 dimer [13] = target: T1, soluble CD73 dimer; experiment: SPR, antibody captured on chip, CD73 in flow; biphasic fit, share after 300 s binding phase of the component with ka 3.24E+05 1/Ms
soluble CD73 dimer [14] = target: T1, soluble CD73 dimer; experiment: SPR, antibody captured on Protein A chip, CD73 in flow; Langmuir ka with major component kd
soluble CD73 dimer [15] = target: T1, soluble CD73 dimer; experiment: SPR, antibody captured on chip, CD73 in flow; biphasic fit, share after 300 s binding phase of the component with ka 5.31E+06 1/Ms
soluble CD73 dimer [16] = target: T1, soluble CD73 dimer; experiment: SPR, antibody captured on chip, CD73 in flow; biphasic fit, share by T0 intercept of the component with kd 2.46E-04 1/s
soluble CD73 dimer [17] = target: T1, soluble CD73 dimer; experiment: SPR, antibody captured on Protein A chip, CD73 in flow; biphasic fit, component of abundance 45%
soluble CD73 dimer [18] = target: T1, soluble CD73 dimer; experiment: SPR, antibody captured on Protein A chip, CD73 in flow; biphasic fit, component of abundance 100%
soluble CD73 dimer [19] = target: T1, soluble CD73 dimer; experiment: SPR, antibody captured on Protein A chip, CD73 in flow; biphasic fit, component of abundance 55%
[20] = target: T2, human CD73 on COR-L23 lung carcinoma cells (human)
soluble CD73 dimer [21] = target: T1, soluble CD73 dimer; experiment: SPR, antibody captured on chip, CD73 in flow; biphasic fit, share after 300 s binding phase of the component with ka 7.03E+05 1/Ms
[22] = target: T3, human CD73 on COR-L23 lung carcinoma cells (human, UniProt P21589 27-549); experiment: cell-based or functional assay
T3 sequence: T1 sequence

B1: CL25/TB19 (bispecific antibody, part only; not given: CL25 arm; constant regions, V domains shown, part only)
VH: QEQLQESGPGLVKPSETLSLTCTVSGGSIRNNYYNWIRQPAGKGLEWIGRIYISGTTNSNPSLKSRVTMSIDTSKNQFSLKLSSVTAADTAIYYCAREHYVSGTSLDNWGQGTLVTVSS
VL: EIVMTQSPTTLSLSPGERATLSCRASQSVNTNYFSWYQQKPGLTPRLLIYGTSTRATGIPARFSGSGSGTDFTLTISSLQPEDFGIYYCQQDYNLPYTFGQGTYLEIK
Work on B1 yielded a fold lower KD than either parental antibody (soluble CD73 dimer [1]) of 15 fold, a fold increase of apparent affinity (KD) over either monovalent parental antibody (soluble CD73 dimer [2]) of 26 fold and a kon (soluble CD73 dimer [3]) of 1.5e+06 M⁻¹ s⁻¹. The abundance of association component (biphasic fit) (soluble CD73 dimer [4]) was 30%, the abundance of dissociation component (biphasic fit) (soluble CD73 dimer [5]) was 14% and the abundance of dissociation component (biphasic fit) (soluble CD73 dimer [6]) was 86%. It also gave a koff (soluble CD73 dimer [7]) of 0.00013 s⁻¹, a kon (soluble CD73 dimer [7]) of 493000 M⁻¹ s⁻¹ and a kon (soluble CD73 dimer [8]) of 324000 M⁻¹ s⁻¹. For the same binder, the koff (soluble CD73 dimer [9]) was 0.00706 s⁻¹, the fold more stable (kd of the principal component) than with either monovalent parental (soluble CD73 dimer [10]) was 8.8 fold and the EC50 (nM) of inhibition of CD73 activity (adenosine by LC/MS) [11] was 0.619 nM. It also gave a Max Inhib. (projected maximal inhibition at saturating antibody) [11] of 97%, a koff (soluble CD73 dimer [12]) of 7.86e-05 s⁻¹ and an abundance of association component (biphasic fit) (soluble CD73 dimer [13]) of 70%. It also gave a Kd (soluble CD73 dimer [14]) of 0.16 nM.

B2: TB19/H7 (bispecific antibody, part only; not given: H7 arm; constant regions, V domains shown, part only)
VH: B1 VH
VL: B1 VL
Binder B2 has an abundance of association component (biphasic fit) (soluble CD73 dimer [15]) of 45%, an abundance of dissociation component (biphasic fit) (soluble CD73 dimer [16]) of 100% and a kon (soluble CD73 dimer [17]) of 5.31e+06 M⁻¹ s⁻¹. For the same binder, the koff (soluble CD73 dimer [18]) was 0.000246 s⁻¹, the koff (soluble CD73 dimer [7]) was 0.000149 s⁻¹ and the kon (soluble CD73 dimer [7]) was 752000 M⁻¹ s⁻¹. For the same binder, the kon (soluble CD73 dimer [19]) was 703000 M⁻¹ s⁻¹, the EC50 (nM) of inhibition of CD73 activity (adenosine by LC/MS) [11] was 0.27 nM and the Max Inhib. (projected maximal inhibition at saturating antibody) [11] was 95%. For the same binder, the % inhibition of CD73 activity at 1 µg/ml antibody (COR-L23 cells, 4 h, LC/MS); cell TB19 x H7 [20] was 93%, the Kd (soluble CD73 dimer [14]) was 0.328 nM and the abundance of association component (biphasic fit) (soluble CD73 dimer [21]) was 55%.

B3: TB19/TB38 (bispecific antibody, V domains shown)
VH 1: B1 VH
VL 1: B1 VL
VH 2: QVQLVESGGGVVQPGRSLRLSCAASGFTFSSYGMHWVRQAPGKGLEWVAVFWYDGSNKYYADSVKGRFTISRDNSKNTLYLQMNSLSAEDTAVYYCARAPNWDDAFDIWGQGTMVTVSS
VL 2: QTVVTQEPSFSVSPGGTVTLTCGLSSGSVSTSYYPNWYQQTPGQAPRTLIYSTNTRSSGVPDRFSGSILGNKAALTITGAQADDESDYYCVLFMGSGIWVFGGGTKLTVL
notes: Biparatopic human IgG1 made by Fab-arm exchange; also called TB19/TB38 biparatopic antibody
B3 was tested, and the “EC50 (nM) of inhibition of CD73 activity (adenosine by LC/MS)” value [22] was 0.777 nM, the koff (soluble CD73 dimer [7]) was 0.000102 s⁻¹ and the kon (soluble CD73 dimer [7]) was 184000 M⁻¹ s⁻¹. For the same binder, the Kd (soluble CD73 dimer [14]) was 0.555 nM.
